Where two headings read alike, the source gives them in different places. Where no end group is shown, it is not given here. [ ]: non-standard residue; d: D form. biotin (long spacer arm) = biotin with long spacer arm, attached via N-hydroxysuccinimidyl ester of biotin; Nle = CCCC[C@H](N)C(=O)O
How the values were obtained:
APC-55 = target: T1, APC-55 (Homo sapiens, UniProt P25054); test: Fluorescence energy transfer titration (dissociation constant of heterodimer); format: binding
T1 construct: APC-55, a peptide corresponding to amino acids 2-55 of human APC; made in house; host or cells: E. coli BL21 (DE3), pAED4 plasmid
T1 sequence (P25054 2-55): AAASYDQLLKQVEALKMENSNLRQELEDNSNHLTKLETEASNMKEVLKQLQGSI
Method: Based on the sensitivity of the fluorescence method used, the dissociation constant of the APC-55/Anti-APCp2 heterodimer was estimated to be less than 10 nM. […] Because the amino-terminal, coiled coil sequence targeted by anti-APCp1 occurs in tumor-associated truncation mutants, the distinct electrophoretic mobilities of the species detected by the antisense peptide distinguish wild-type from tumorigenic APC variants (FIG. 9).

[1] = target: T2, N-terminal APC coiled coil (APC-55) (Homo sapiens, UniProt P25054); test: Thermal denaturation followed by circular dichroism at 222 nm (apparent Tm); format: physicochemical; conditions: for Apparent Tm: 10 mM phosphate pH 7.0 and 100 mM potassium flouride, midpoint of CD thermal denaturation at 222 nm
T2 construct: APC-55, a peptide corresponding to amino acids 2-55 of human APC; made in house; host or cells: E. coli BL21 (DE3), pAED4 plasmid
T2 sequence (P25054 2-55): T1 sequence (P25054 2-55)
Method: Circular dischroism investigations are well known in the art. For example, such an investigation may be performed using a 1 cm or 1 mm cuvette (Helma or Uvonic) on an Aviv CD spectrophotometer (model 60DS or model 62DS) equipped with a thermoelectric controller. The buffer used for all CD experiments except pH titrations is 100 mM KF, 10 mM potassium phosphate (pH 7.0). All peptide concentrations may be determined by tyrosine absorbance at 275.5 nm in 6.0 M GuHCl PH 6.5 (Schwarz/Mann Biotech Ultra-Pure grade) using an Aviv UV/VIS spectrophotometer (model 1 BDS or 14 DS). The molar ellipticity at 222 nm, 5° C., is measured for the homo- and heterodimers. The CD values (i.e., deg cm^2 and dmol^-1) indicate % helicity of the peptides. Thermal melting curves are determined by monitoring the CD signal at 222 nm as a function of temperature. The pH dependence of stability may be measured in 100 mM KF, 10 mM potassium phosphate at various pH values. GuHCl (Schwarz/Mann Biotech Ultra-Pure grade) (e.g., 2M) may be included in the buffer used for monitoring the pH dependence of stability. pH stability is indicated if the same overall shape of the pH dependence curve is obtained in the absence as well as the presence of GuHCl. It is also desirable to determine the reversibility for all thermal melts. The absence of reversibility of a melting curve above a certain pH value indicates chemical modification and/or degradation of the polypeptide. Such modification and/or degradation may be confirmed using HPLC.
Thermal denaturation is used to determine Tm. The term "Tm " refers to the temperature at which the fraction of a polypeptide which is unfolded is equal to the fraction folded (ΔG=0). The Tm is determined by curve fitting a thermal denaturation curve (described supra) to an equation known in the art (see, O'Shea et al (1992) Cell 68:699-708) using a nonlinear least squares-fitting program (e.g., Kaledagraph, Synergy Software). Alternatively, the Tm for each polypeptide may also be determined by taking the first derivative of the CD signal (β) with respect to temperature^-1 (temperature in K) and finding the minimum of this function (Cantor and Schimmel, 1980). Similarly, denaturation induced by additives such as urea or GuHCl can be followed by circular dichroism. These measurements can yield the Cm, i.e., the denaturant concentration where ΔG=0. Linear extrapolation of the transition to zero denaturant can yield the equilibrium constant in aqueous buffer. This can be converted to a free energy of association using the formula ΔG=--RTlnK [Cantor and Schimmel (1980) supra).
CD spectra (180-300 nm) for the APC-55 and anti-APCp1 peptides alone and in combination were recorded in a 1 mm quartz cuvette at 5° C. using an Aviv 62DS circular dichroism spectrophotometer. The concentrations of peptide stocks were determined optically by the method of Gill and vonHippel, Anal. Biochem 182:319-326 (1989). Peptide stocks were diluted in 10 mM KPO4, 100 mM KF, pH 7.0. Thermal denaturations were carried out in steps of 1-3° C. with 2 minutes for equilibration and one minute for data averaging. Thermal transitions were >95% reversible. The results in FIGS. 3 and 4 obtained with the APC-55 alone are shown by open circles (.largecircle.), with the anti-APCp1 alone by squares (.quadrature.), and with an equimolar mixture of APC-55 and anti-APCp1 with closed circles (.circle-solid.).

[2] = target: GST-APC-H1 (GST fused to the first 55 amino acids of the human APC protein, heptad repeat 1) (human, UniProt P08515 = GST); test: Western blot of bacterial lysates, 5 nM biotinylated peptide, streptavidin-HRP
Method: (§1) Bacterial lysates containing GST, GST-APC-H1, GST-APC-H1-4 and GST-APC-probe were diluted 1:10 in cell lysates from induced BL21 cells containing no APC sequences and adjusted to a final protein concentration of 0.5 mg/ml in sample buffer. Five micrograms of each sample was electrophoresed on a precast 10% Tricine-SDS polyacrylamide gel (Novex) as described by Schager and von-Jagow (1987). Proteins were transferred to 0.45 micron nitrocellulose for 2 hours at 100 V, 4° C., in transfer buffer (25 mM Tris, 192 mM glycine, 20% methanol, 0.1% SDS).
(§2) The anti-APCp1 peptide was biotinylated by removing the F-moc protecting group from the N-terminus of the peptide on the synthesis resin and incubating the resin with the N-hydroxy-succinimidyl ester of biotin containing a long spacer arm (Pierce, Catalog #21336) in dimethylformamide. The biotinylated anti-APCp1 contains Met (instead of Nrl) as well as an additional Leu8Val mutation and Glu-Asp-Glu (wild-type APC sequence) at the peptide C-terminus. This probe was indistinguishable from anti-APCp1 in native gel experiments and CD experiments (data not shown). Blots were blocked for 1 hour in PNT buffer (10 mM phosphate, pH 8.0, 175 mM NaCl, 0.1% Tween-20) containing 0.5% bovine serum albumin. After blocking, blots were probed for I hour at 42° C. with 5 nM biotinylated antiAPC peptide in PNT buffer containing 1% BSA. […]

[3] = target: GST-APC-H1-4 (GST fused to the N-terminal 373 amino acids of the APC protein, heptad repeats 1-4) (human, UniProt P08515 = GST); test: as above
Method: as §1, §2

[4] = target: T3, APC-55, a peptide corresponding to amino acids 2-55 of human APC (human); test: fluorescence energy transfer titration
T3 peptide: T1 sequence (P25054 2-55)

[5] = target: T3, APC-55, a peptide corresponding to …; test: thermal denaturation by CD, equimolar mixture, 75.0 µM
[6] = target: T3, APC-55, a peptide corresponding to …; test: thermal stability at 20 µM peptide in PBS (pH 7.0), mixture
[7] = target: T3, APC-55, a peptide corresponding to …; test: thermal denaturation by CD, equimolar mixture, 20.0 µM
[8] = target: T3, APC-55, a peptide corresponding to …; test: thermal denaturation by CD, equimolar mixture, 8.0 µM
[9] = target: T3, APC-55, a peptide corresponding to …; test: thermal denaturation by CD at 222 nm, equimolar mixture, 75.0 µM
Method: (§3) CD spectra (180–300 nm) for the APC-55 and anti-APCp1 peptides alone and in combination were recorded in a 1 mm quartz cuvette at 5° C. using an Aviv 62DS circular dichroism spectrophotometer. The concentrations of peptide stocks were determined optically by the method of Gill and vonHippel, *Anal. Biochem* 182:319–326 (1989). Peptide stocks were diluted in 10 mM KPO_4, 100 mM KF, pH 7.0. Thermal denaturations were carried out in steps of 1–3° C. with 2 minutes for equilibration and one minute for data averaging. Thermal transitions were >95% reversible. The results in FIGS. 3 and 4 obtained with the APC-55 alone are shown by open circles (○), with the anti-APCp1 alone by squares (□), and with an equimolar mixture of APC-55 and anti-APCp1 with closed circles (●).

[10] = thermal denaturation by CD at 222 nm, peptide alone (homo-oligomer), 20.0 µM
[11] = target: T3, APC-55, a peptide corresponding to …; test: thermal denaturation followed by circular dichroism at 222 nm
Method: as §3

[12] = thermal denaturation by CD at 222 nm, peptide alone (homo-oligomer), 8.0 µM
[13] = target: T3, APC-55, a peptide corresponding to …; test: native acrylamide gel electrophoresis, judged by the sensitivity of detection
Method: Native acrylamide gel electrophoresis was used as a direct test of heterodimer specificity. Samples of the individual peptides and an equimolar mixture of the peptides were prepared at 0.6 mM and diluted two-fold in 0.2% (w/v) methyl green, 20% glycerol, 750 mM beta-alanine acetate pH 6.0. Gels contained a separating gel of 7.5% acrylamide in 375 mM beta-alanine acetate, pH 4.0. Samples were run for 2.5 hours at 100 volts, and the gels were fixed with 2% glutaraldehyde and stained for at least 1 hour in 0.2% Coomassie Brilliant Blue in 50% methanol, 10% acetic acid (v/v). Destaining was carried out overnight in the same solvent lacking the dye.
The data presented herein was surprising in view of the prior art reports of the sufficiency of e':g interactions for dimerization specificity of coiled coil proteins [O'Shea et al. (1992), supra; O'Shea et al. (1993) supra; Krylov et al (1994) EMBO J. 13:2849–2861].

[14] = thermal denaturation by CD at 222 nm, peptide alone (homo-oligomer), 75.0 µM
[15] = target: T3, APC-55, a peptide corresponding to …; test: thermal denaturation by CD at 222 nm, equimolar mixture, 8.0 µM
Method: as §3

[16] = target: T3, APC-55, a peptide corresponding to …; test: thermal denaturation by CD at 222 nm, equimolar mixture, 20.0 µM
Method: as §3

[17] = thermal stability at 20 µM peptide in PBS (pH 7.0), peptide alone
coumarin-labeled APC-55 = target: T4, coumarin-labeled APC-55 (human, coumarin label (site not stated)); test: fluorescence energy transfer measurements
T4 peptide: T1 sequence (P25054 2-55)

[18] = thermal denaturation by CD, peptide alone, 75.0 µM
[19] = thermal denaturation by CD, peptide alone, 20.0 µM
[20] = thermal denaturation by CD, peptide alone, 8.0 µM

Q: Which Kd (APC-55; fluorescein- and coumarin-labeled anti-APCp1 and APC-55, data not shown, read-out: Kd of the heterodimer (upper limit)) does the source give for “MAAKGDQLKKEVEALEYENSNLRKKLEDHKKKLTKLKTEISNAKKMLKQLYASI [anti-APCp1]” here?
A: The Kd was ≤ 10 nM.

Q: Which results are given for “APC-55: peptide corresponding to amino acids 2-55 of human APC; target coiled coil; MAAASYDQLLKQVEALKMENSNLRQELEDNSNHLTKLETEASNMKEVLKQLQGSI”?
A: Apparent Tm (+/- 1.25° C.) ([1]; 8.0 μM peptide (Table 9)): 36.3 °C; Apparent Tm ([1]; 8.0 μM peptide): 36.3 °C; Apparent Tm (+/- 1.25° C.) ([1]; 20.0 μM peptide (Table 9)): 40.0 °C; Tm (thermal stability) ([1]; 20 μM peptide concentration in PBS (pH 7.0)): 40.0 °C; Apparent Tm ([1]; 20.0 μM peptide): 40.0 °C; Apparent Tm (+/- 1.25° C.) ([1]; 75.0 μM peptide (Table 9)): 46.5 °C; Apparent Tm ([1]; 75.0 μM peptide): 46.5 °C

Q: Which Kd (APC-55; estimated from the sensitivity of the fluorescence method, read-out: dissociation constant of the APC-55/Anti-APCp2 heterodimer) does the source give for “[Nle]AAKGDQLKKEVEALEYENSNLRKKLEDHKKKLTKLKTEISNAKK[Nle]LKQLYASI [anti-APCp2]” here?
A: Its Kd is < 10 nM.

B1: biotinylated anti-APCp1 (contains Met instead of Nrl, an additional Leu8Val mutation and Glu-Asp-Glu at the peptide C-terminus) (designed binder)
peptide: {biotin (long spacer arm)}-MAAKGDQVKKEVEALEYENSNLRKKLEDHKKKLTKLKTEISNAKKMLKQLYASIEDE
Q: Does B1 bind [2]?
A: Result: binds

Q: Does B1 bind [3]?
A: Result: binds

B2: anti-APCp2 polypeptide probe (designed binder)
peptide: [Nle]AAKGDQLKKEVEALEYENSNLRKKLEDHKKKLTKLKTEISNAKK[Nle]LKQLYASI
Q: Which results are given for B2?
A: Kd [4]: < 10 nM; Apparent Tm [5]: 63.6 ° C.; Tm [6]: 57.5 ° C.; Apparent Tm [7]: 57.5 ° C.; Apparent Tm [8]: 52.9 ° C.

B3: anti-APCp1 polypeptide probe (designed binder)
peptide: MAAKGDQLKKEVEALEYENSNLRKKLEDHKKKLTKLKTEISNAKKMLKQLYASI
Q: For B3, which “Apparent Tm” value [9] is on record?
A: Its value is 64.7 ° C.

Q: And the Apparent Tm [10]?
A: Its Apparent Tm is 52.3 ° C.

Q: And the “increase in the thermal melting transition” value [11]?
A: The value was > 10 ° C.

Q: What about the Apparent Tm [12] of the same molecule?
A: Its Apparent Tm is 45 ° C.

Q: And the Tm [6]?
A: Its Tm is 54.3 ° C.

Q: What about the “preference for heterodimer over homodimers (fold)” value [13] of the same molecule?
A: Its value is ≥ 100 fold.

Q: What about the Apparent Tm [14] of the same molecule?
A: Its Apparent Tm is 59.6 ° C.

Q: And the “Apparent Tm” value [15]?
A: Its value is 50.6 ° C.

Q: What about the “Apparent Tm” value [16] of the same molecule?
A: The value was 54.3 ° C.

Q: And the Tm [17]?
A: The Tm was 52.3 ° C.

B4: fluorescein-labeled anti-APCp1 (designed binder)
peptide: B3 peptide
modifications: also: fluorescein label (site not given here)
Q: With B4 as the molecule, how does the Kd (coumarin-labeled APC-55) read?
A: The Kd was ≤ 10 nM.

B5: APC-55, a peptide corresponding to amino acids 2-55 of human APC (protein)
chain: T1 sequence (P25054 2-55)
Q: With B5 as the molecule, how does the Apparent Tm [10] read?
A: The Apparent Tm was 40 ° C.

Q: What about the Apparent Tm [18] of the same molecule?
A: Its Apparent Tm is 46.5 ° C.

Q: What about the Apparent Tm [12] of the same molecule?
A: The Apparent Tm was 36.3 ° C.

Q: And the Apparent Tm [19]?
A: The Apparent Tm was 40 ° C.

Q: What about the Apparent Tm [14] of the same molecule?
A: The Apparent Tm was 46.5 ° C.

Q: What about the Tm [17] of the same molecule?
A: The Tm was 40 ° C.

Q: And the Apparent Tm [20]?
A: The Apparent Tm was 36.3 ° C.

— patent publication US6303317A, “Peptide probes and methods for making the same” (The Regents of the University of California, priority 1998, dated 2001)
